# Reference: patent US20240199761A1 (AstraZeneca / MedImmune, published 2024)
# Like-named read-outs stand apart in the source and are kept apart here.
# B1: Clone 12 (Bis3, FQQ-YTE; Fab anti-PAD2, scFv anti-PAD4) (bispecific antibody, human IgG1, lambda)
# heavy: not shown
# light: SYVLTQPPSVSVSPGQTASITCSGDKVGDKYVSWYQQKPGQSPVLVIYQDSQRPSGIPERFSGSNSGNTATLTISGTQAMDEADYYCQTWAPDVLLFGSGTKVTVLGQPKAAPSVTLFPPSSEELQANKATLVCLISDFYPGAVTVAWKADSSPVKAGVETTTPSKQSNNKYAASSYLSLTPEQWKSHRSYSCQVTHEGSTVEKTVAPTECS
# notes: Bivalent bispecific IgG-HC-scFv; also called PAD240012; Bis3 = scFv (PAD4)-Fab(PAD2)
# B2: Clone 12, Bis3 anti-PAD2 Fab / anti-PAD4 scFv, Fc FQQ-YTE (bispecific antibody, human IgG1, lambda)
# heavy: not shown
# light: B1 light
# notes: Bivalent for PAD2 and for PAD4; In the rows marked ^# the antibody was chemically biotinylated; also called PAD240012
# B3: Clone 22 (Fab) (141LO0035 hIgG1 pgl-4) (Fab, V domains shown)
# VH: not shown
# VL: SYVLTQPPSVSVSPGQTASITCSGDKVGDKYVSWYQQKPGQSPVLVIYQDSQRPSGIPERFSGSNSGNTATLTISGTQAMDEADYYCQTWAPDVLLFGSGTKVTVL
# notes: Tested as a Fab; Only the variable domains are tied to Clone 22; also called anti-PAD2 Fab
# Tests used:
# recombinant mouse PAD2 [1] = target: T1, recombinant mouse PAD2 (mouse, UniProt Q08642 1-673); assay: ratio of SPR KDs, mouse PAD2 against human PAD2; biotinylated antibody captured on C1-streptavidin, PAD flowed over
# T1 construct: Recombinant and tagged
# huFcRn = target: T2, huFcRn (human, UniProt P55899 24-297; P61769 21-119, limits assumed); assay: huFcRn affinity chromatography, pH gradient elution
# T2 construct: also called human neonatal Fc receptor
# [2] = target: T3, human PAD2, recombinant, tags at the N-terminus (human, UniProt Q9Y2J8 1-665, enzymatically biotinylated on an Avi-tag where captured on streptavidin); assay: SPR; biotinylated antibody on C1-streptavidin, PAD2 flowed over
# T3 construct: not shown: N-terminal tags incl; Avi-tag
# [3] = target: T4, cynomolgus PAD2, recombinant, tags at the N-terminus (cynomolgus, UniProt G7NUR0 1-665, enzymatically biotinylated on an Avi-tag where captured on streptavidin); assay: as above
# T4 construct: also called Cyno PAD2; not shown: N-terminal tags incl; Avi-tag
# [4] = target: T5, mouse PAD2, recombinant, tags at the N-terminus (mouse, UniProt Q08642 1-673, enzymatically biotinylated on an Avi-tag where captured on streptavidin); assay: as above
# T5 construct: not shown: N-terminal tags incl; Avi-tag
# [5] = target: T3, human PAD2, recombinant, tags at the …; assay: as above; remark: listed apart in the source
# [6] = target: T4, cynomolgus PAD2, recombinant, tags at …; assay: as above; remark: listed apart in the source
# [7] = target: T5, mouse PAD2, recombinant, tags at the …; assay: as above; remark: listed apart in the source
# recombinant mouse PAD2 [8] = target: T1, recombinant mouse PAD2; assay: ratio of SPR KDs, mouse PAD2 against human PAD2; biotinylated PAD captured on C1-streptavidin, antibody flowed over
binder,measurement,setting,value
B1,"fold difference in KD, mouse/human",recombinant mouse PAD2 [1],2.1 fold
same,HPLC retention,huFcRn,22.8 min
same,Relative retention,huFcRn,0.746
B2,Kd,[2],0.00676 nM
same,koff,[2],4.05e-05 s⁻¹
same,kon,[2],5.6e+06 M⁻¹ s⁻¹
same,Kd,[3],0.0138 nM
same,koff,[3],5.74e-05 s⁻¹
same,kon,[3],4.19e+06 M⁻¹ s⁻¹
same,Kd,[4],0.0142 nM
same,koff,[4],6.89e-05 s⁻¹
same,kon,[4],4.85e+06 M⁻¹ s⁻¹
same,Kd,[5],0.00676 nM
same,Kd,[6],0.0138 nM
same,Kd,[7],0.0142 nM
B3,"fold difference in KD, mouse/human",recombinant mouse PAD2 [8],10 fold
